Paper PMC2517623, “The NDR/LATS Family Kinase Cbk1 Directly Controls Transcriptional Asymmetry” (PLoS Biology, 2008)

B1: GST-Ace2(122-150), wild-type (domain or fragment)
chain: SGTAIFGFLGHNKTLSISSLQQSILNMSK
notes: source: E. coli BL21(DE3)RIL, immobilised from lysate on glutathione-sepharose and washed; not shown: GST, N-terminal, kept
B2: GST-Ace2(122-150) F127V (domain or fragment)
chain: SGTAIVGFLGHNKTLSISSLQQSILNMSK
notes: as for B1
B3: GST-Ace2(122-150) S137D (domain or fragment)
chain: SGTAIFGFLGHNKTLDISSLQQSILNMSK
notes: as for B1
B4: GST-Ace2(122-150) S122D (domain or fragment)
chain: DGTAIFGFLGHNKTLSISSLQQSILNMSK
notes: as for B1

target: His6-Crm1 (S. cerevisiae, UniProt P30822 1-1084); assay: pull-down; GST fusions immobilised on glutathione-sepharose from E. coli lysate and washed five times in PBS/KMD; His6-Xpo1 (Crm1) 5 μM in 100 μl, 4 °C, 15 min; washed with TBST; SDS-PAGE, GelCode Blue; without Ran-GTP; settings: both partners purified

Binding result, binds:
B1
B2
B3
B4
